Literature values, collected in paper PMC7130864.

Target: Kv1.3 (Homo sapiens) (UniProt P22001)
UniProt P22001, sequence (P22001 whole entry): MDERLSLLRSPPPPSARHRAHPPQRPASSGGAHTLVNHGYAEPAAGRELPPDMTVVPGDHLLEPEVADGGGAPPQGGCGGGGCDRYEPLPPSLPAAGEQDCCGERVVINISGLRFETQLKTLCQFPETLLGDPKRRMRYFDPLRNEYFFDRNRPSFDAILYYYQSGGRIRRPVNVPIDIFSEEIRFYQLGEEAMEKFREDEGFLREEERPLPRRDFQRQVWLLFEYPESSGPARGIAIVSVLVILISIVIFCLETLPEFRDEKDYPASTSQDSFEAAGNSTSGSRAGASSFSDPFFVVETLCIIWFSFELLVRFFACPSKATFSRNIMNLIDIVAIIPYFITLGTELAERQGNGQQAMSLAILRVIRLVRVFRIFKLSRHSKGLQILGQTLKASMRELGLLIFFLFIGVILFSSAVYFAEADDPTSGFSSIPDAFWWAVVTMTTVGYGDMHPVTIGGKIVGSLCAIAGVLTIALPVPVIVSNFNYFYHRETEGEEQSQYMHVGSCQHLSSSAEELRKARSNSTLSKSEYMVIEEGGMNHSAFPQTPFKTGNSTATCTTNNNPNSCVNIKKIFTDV

BmKTX (from UniProt Q9NII7)
Kd: 0.2 nM
